# T1: recombinant human CD73 protein (ecto-5'-nucleotidase), expressed by the applicant, C-terminal 6x His tag (human, UniProt P21589 27-547)
# T1 sequence: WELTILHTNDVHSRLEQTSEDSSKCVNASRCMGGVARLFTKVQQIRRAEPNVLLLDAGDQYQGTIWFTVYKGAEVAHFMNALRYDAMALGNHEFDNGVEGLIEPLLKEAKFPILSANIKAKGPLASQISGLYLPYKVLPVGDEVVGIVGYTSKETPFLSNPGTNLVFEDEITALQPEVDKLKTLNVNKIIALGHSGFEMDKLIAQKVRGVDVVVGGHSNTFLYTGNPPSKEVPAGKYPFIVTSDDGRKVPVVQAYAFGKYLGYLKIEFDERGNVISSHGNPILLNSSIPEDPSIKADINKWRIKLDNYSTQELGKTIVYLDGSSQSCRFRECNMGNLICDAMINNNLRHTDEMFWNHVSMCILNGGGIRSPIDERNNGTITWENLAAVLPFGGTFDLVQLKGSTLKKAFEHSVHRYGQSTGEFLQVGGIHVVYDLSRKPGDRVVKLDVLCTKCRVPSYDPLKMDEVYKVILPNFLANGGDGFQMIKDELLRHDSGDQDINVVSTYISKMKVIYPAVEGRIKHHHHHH
# T2: CD73 on A549 cells (UniProt P21589 27-549, limits assumed)
# T2 sequence (looked up): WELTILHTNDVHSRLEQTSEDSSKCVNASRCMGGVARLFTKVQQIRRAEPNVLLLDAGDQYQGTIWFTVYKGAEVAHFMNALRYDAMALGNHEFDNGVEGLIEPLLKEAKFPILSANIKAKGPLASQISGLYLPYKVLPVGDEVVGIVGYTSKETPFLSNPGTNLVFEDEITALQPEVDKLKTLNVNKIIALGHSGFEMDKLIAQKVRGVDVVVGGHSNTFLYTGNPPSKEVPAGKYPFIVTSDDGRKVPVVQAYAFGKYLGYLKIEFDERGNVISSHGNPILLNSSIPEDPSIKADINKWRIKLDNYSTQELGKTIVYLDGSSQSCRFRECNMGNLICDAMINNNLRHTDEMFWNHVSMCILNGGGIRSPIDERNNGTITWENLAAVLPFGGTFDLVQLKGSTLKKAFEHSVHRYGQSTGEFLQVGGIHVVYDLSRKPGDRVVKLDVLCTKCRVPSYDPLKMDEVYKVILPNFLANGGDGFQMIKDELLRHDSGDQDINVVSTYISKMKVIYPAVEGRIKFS
# B1: anti-CD73 monoclonal antibody 81-2-2 (antibody, V domains shown)
# VH: QVQLQQPGAELVKPGASVKLSCKASGYTFTSYWMHWVKQRPGQGLEWIGEINPSNGRTNYNEKFKSKATLTVDKSSSTAYMQLSSLTSEDSAVYYCARRGTSGNFFDYWGQGTTLTVSS
# VL: DIKMTQSPSSMYASLGERVTITCKASQDINTYLSWFQQKPGKSPKTLIYRANRLVDGVPSRFSGSGSGQDYSLTISSLEYEDMGIYYCLQFDEFPYTFGGGTKLEIK
# notes: Mouse hybridoma antibody of the IgG type, purified from ascitic fluid
# B2: anti-CD73 monoclonal antibody 9-4 (antibody, V domains shown)
# VH: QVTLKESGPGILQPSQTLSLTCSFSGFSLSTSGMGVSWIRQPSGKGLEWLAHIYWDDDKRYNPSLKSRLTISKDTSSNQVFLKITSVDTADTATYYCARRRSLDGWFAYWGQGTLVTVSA
# VL: DIQMTQSPAALSASVGETVTITCRASGNIHNYLAWYQQKQGKSPQLLVYNTQILADGVPSRFSGSGSGTQYSLKINSLQPEDFGTFYCQHFWDSPWTFGGGTKMEIK
# notes: as for B1
# B3: anti-CD73 monoclonal antibody F2-2 (antibody, V domains shown)
# VH: VQLQESGPGLVKPSQSLSLTCTVTGHSITSDYVWNWIRQFPGNKLEWMGYISYSGIIKYNPSLKSRISITRDTSKNQFFLQLNSVTTEDTATYYCAGDEYFWFAYWGQGTTVTVSS
# VL: DIQMTQSPSSMYASLGERVTITCKASQDIKSYLSWYQQKPWKSPKTLIYYATNLADGVPSRFSGSGSGQDYSLTISSLESDDTATYYCLQHGESPYTFGGGTKLEIK
# notes: as for B1
# B4: anti-CD73 monoclonal antibody 06-6 (antibody, V domains shown)
# VH: QVQLQQSGPELVKPGASVRISCKASGYTFADYFMHWVRLRPGQGLEWIGWIYPGYVNIKYNEKFKGKATLTADKSSSTAYMQLSSLTSEDSAVYFCARGEDYDSAMDYWGQGTSVTVSS
# VL: GVVMTQTPLSLPVSLGDQASISCRSSQSLVHSNGNTYLHWYLQKPGQSPKLLIYKVSNRFSGVPDRFSGSGSGTDFTLKISRVEAEDLGVYFCSQSTHVPPWTFGGGTKLEIK
# notes: as for B1
# B5: anti-CD73 monoclonal antibody E1-B6 (antibody, V domains shown)
# VH: VKLQESGAELARPGASVKLSCKASGYTFTDYYINWVKQRTGQGLEWIGETYPGNGNTYYHEKFKGKATLTADRSSSTAYMQLSSLTSEDSAVYFCARGTYYGSSEYFDYWGQGTTVTVSS
# VL: DIVMTQSPKFMSTSVGDRVSITCKASQNVGTAVAWYQQRPGQSPKLLIYSASNRNTGVPDRFTGSGSGTDFTLTISNMQSEDLADYFCQQYSSYIFTFGSGTKLEIN
# notes: as for B1
# Biological target: T1, recombinant human CD73 protein …
# Assay: SPR, Biacore T200, antibody captured by anti-mouse Fc IgG, human CD73 injected, 25 °C, 1:1 fit
# Procedure: (§1) Anti-mouse Fc IgG was fixated on a CMS sensor chip by amine coupling in order to capture the antibody under test with the coupled anti-mouse Fc IgG. A series of human CD73 proteins having a predetermined concentration gradient were then injected, before the pH 1.7 glycine-HCl regeneration testing system that came with the reagent kit was used.
# (§2) HBS-EP+ (10 mM HEPES; pH7.4, 150 mM NaCl; 3 mM EDTA; and 0.05% P20) was used as the running buffer, and the testing temperature was 25° C.
# (§3) The binding constant (Ka), dissociation rate constant (Kd), and equilibrium constant (KD) were calculated with the Biacore T200 evaluation software by combining the model fitting data at a 1:1 ratio.
Binder,Kd,koff,kon
B1,0.49 nM,0.000104 s⁻¹,212000 M⁻¹ s⁻¹
B2,0.452 nM,0.00015 s⁻¹,332000 M⁻¹ s⁻¹
B3,0.0318 nM,1.71e-05 s⁻¹,538000 M⁻¹ s⁻¹
B4,0.753 nM,0.000183 s⁻¹,242000 M⁻¹ s⁻¹
B5,0.813 nM,0.000387 s⁻¹,476000 M⁻¹ s⁻¹

# Biological target: T2, CD73 on A549 cells
# Assay: cell-based or functional assay
row,Binder,"EC50 (µg/mL), Cell level (A549 cells), inhibition of the enzyme activity of CD73"
1,B1,0.213 µg/mL
2,B2,0.175 µg/mL
3,B3,0.0397 µg/mL
4,B4,0.147 µg/mL
5,B5,0.182 µg/mL

# Biological target: T1, recombinant human CD73 protein …
# Assay: cell-based or functional assay
row,Binder,"EC50 (µg/mL), Biochemical level, inhibition of the enzyme activity of CD73"
1,B1,0.239 µg/mL
2,B2,0.211 µg/mL
3,B3,0.109 µg/mL
4,B4,0.206 µg/mL
5,B5,0.232 µg/mL

# Biological target: T1, recombinant human CD73 protein …
# Assay: SPR (Biacore T200), antibody captured on anti-mouse Fc IgG chip, human CD73 injected in a concentration series, 25 C, 1:1 fit; the sheet prints E-4 where the 1st table, row 5, column 4 prints 10^-5; E-4 agrees with the printed ka 4.764E+5 and KD 8.129E-10
# Procedure: as §1, §2, §3
row,Binder,koff
1,B5,0.000387 s⁻¹
